Laboratory results as given in paper doi:10.1101/2021.07.23.453529, “TELSAM polymers accelerate crystallization of fused target proteins by stabilizing minimal crystal contacts and in the absence of direct inter-TELSAM contacts” (bioRxiv, 2021).

B1: DARPin (Designed Ankyrin Repeat Protein) of 3TEL-rigid-DARPin (designed binder)
chain: DLGKKLLEAARAGQDDEVRILMANGADVNATDNDGYTPLHLAASNGHLEIVEVLLKNGADVNASDLTGITPLHAAAATGHLEIVEVLLKHGADVNAYDNDGHTPLHLAAKYGHLEIVEVLLKHGADVNAQDKFGKTAFDISIDNGNEDLAEILQKLN
notes: Designed Ankyrin Repeat Protein (DARPin), modelled from PDB ID 4J7W; Stood in the crystal joined on one chain with 3TEL; also called DAPRin; source: E. coli BL21(DE3), purified, as part of the 3TEL-rigid-DARPin chain
B2: 3TEL (three tandem TELSAM monomers) of 3TEL-rigid-DARPin (domain or fragment, human)
chain: GSIRLPAHLRLQPIYWSRDDVAQWLKWAENEFSLRPIDSNTFEMNGKALLLLTKEDFRYRSPHSGDELYELLQHILKQRPGGGGSTSIRLPAHLRLQPIYWSRDDVAQWLKWAENEFSLRPIDSNTFEMNGKALLLLTKEDFRYRSPHSGDVLYELLQHILKQRPGGGGSTSIRLPAHLRLQPIYWSRDDVAQWLKWAENEFSLRPIDSNTFEMNGKALLLLTKEDFRYRSPHSGDVLYELLQHILKQR
notes: residue printed before TEL S47, left after SUMO cleavage; first TEL-SAM domain of 3TEL (human ETS variant transcription factor 6), the only one with V112E; flexible inter-TELSAM linker, as in PDB ID 2QAR; second TEL-SAM domain of 3TEL (human ETS variant transcription factor 6); third TEL-SAM domain of 3TEL (human ETS variant transcription factor 6); written apart for the contacts between the two …
B3: 1TEL (single TELSAM monomer) of 1TEL-flex-vWa (domain or fragment, human)
chain: GSIALPAHLRLQPIYWSRDDVAQWLKWAENEFSLRPIDSNTFEMNGKALLLLTKEDFRYRSPHSGDELYELLQHILAQ
notes: residue printed before TEL S47, left after SUMO cleavage; sterile alpha motif (SAM) domain of human ETS variant transcription factor 6 (TEL); Stood in the crystal joined on one chain with the vWa domain through one alanine; written apart for the contacts between the two parts
B4: 3TEL-rigid-DARPin (other, human)
chain: GSIRLPAHLRLQPIYWSRDDVAQWLKWAENEFSLRPIDSNTFEMNGKALLLLTKEDFRYRSPHSGDELYELLQHILKQRPGGGGSTSIRLPAHLRLQPIYWSRDDVAQWLKWAENEFSLRPIDSNTFEMNGKALLLLTKEDFRYRSPHSGDVLYELLQHILKQRPGGGGSTSIRLPAHLRLQPIYWSRDDVAQWLKWAENEFSLRPIDSNTFEMNGKALLLLTKEDFRYRSPHSGDVLYELLQHILKQRDLEAEAAAAEDLGKKLLEAARAGQDDEVRILMANGADVNATDNDGYTPLHLAASNGHLEIVEVLLKNGADVNASDLTGITPLHAAAATGHLEIVEVLLKHGADVNAYDNDGHTPLHLAAKYGHLEIVEVLLKHGADVNAQDKFGKTAFDISIDNGNEDLAEILQKLN
notes: residue printed before TEL S47, left after SUMO cleavage; first TEL-SAM domain of 3TEL (human ETS variant transcription factor 6), the only one with V112E; flexible inter-TELSAM linker, as in PDB ID 2QAR; second TEL-SAM domain of 3TEL (human ETS variant transcription factor 6); third TEL-SAM domain of 3TEL (human ETS variant transcription factor 6); rigid alpha-helical connection between 3TEL and …

Key:
[1] = biological target: B2; assay: crystal structure; 3TEL-rigid-DARPin, 15 mg/mL, sitting drop, HEPES pH 7.3-7.4 with PEG; P1211, 2 molecules per asymmetric unit; contacts within the polymer and the crystal lattice; details: both partners purified
[2] = biological target: the molecule itself; assay: as above
[3] = biological target: the molecule itself; assay: crystal structure; 1TEL-flex-vWa, 20 mg/mL, sitting drop, 100 mM Bis-Tris, pH 5.7, 3.0 M NaCl; P65, 1 molecule per asymmetric unit; contacts within the polymer and the crystal lattice

Does B1 bind [1]?
Result: binds

Does B2 bind [2]?
Result: binds

Does B3 bind [3]?
Result: binds

Does B4 bind [2]?
Result: binds
